The term Kd denotes the constant that tells how readily two partners part at equilibrium. A lower Kd goes with higher affinity.

Assay [1] concerns the target double-labelled SecYEG(Bpy/Trp) (E. coli) (UniProt P0AGA2).
Assay [2] deals with SecYEG translocon embedded in nanodiscs, labelled for FRET titrations (E. coli) (UniProt P0AGA2). Description: FRET or BRET; titration of nanodisc-embedded translocon with vacant ribosomes or Lep75-RNC (Supplementary Fig. 3); FRET between labels in the translocon and the ribosome is told for panel c; buffer A (20 mM HEPES pH 7.5, 70 mM NH4Cl, 30 mM KCl, 7 mM MgCl2, 10% glycerol), 25 °C. For orientation: BRET reads energy transfer from a luciferase to a nearby fluorophore.

The target of assay [3] is double-labelled SecYEG(Bpy/Trp) (E. coli) (UniProt P0AGA2). This is another data set of the same source.
In assay [4] the target is SecYEG translocon embedded in nanodiscs, labelled for FRET titrations (E. coli) (UniProt P0AGA2). Description: FRET or BRET; titration monitoring FRET between labels in the translocon and the ribosome, at the lower temperature (4 °C).

Sequence of DsbA100-RNC (P0AEG4 whole entry, looked up): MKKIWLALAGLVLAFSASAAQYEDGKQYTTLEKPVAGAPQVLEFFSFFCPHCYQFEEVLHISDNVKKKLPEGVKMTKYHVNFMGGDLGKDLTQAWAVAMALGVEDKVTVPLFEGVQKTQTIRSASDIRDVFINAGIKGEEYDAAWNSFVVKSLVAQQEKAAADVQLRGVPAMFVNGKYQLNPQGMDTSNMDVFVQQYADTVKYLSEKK

With “Lep75-RNC (ribosome-nascent-chain complex carrying 75 N-terminal amino acids of leader peptidase) (from UniProt P00803 1-75)”, in assay [1], the increase of Bpy fluorescence of nanodisc-embedded SecYEG(Bpy/Trp) (50 nM) on addition of Lep75-RNC (200 nM), 25 °C (loss of PET quenching, lateral gate opening) came to 30% and the net increase of Bpy fluorescence of SecYEG(Bpy/Trp) on Lep75-RNC binding, after the change seen with single-labelled SecYEG(Bpy), 25 °C worked out at 25%. Also, the Kd in assay [2] worked out at 10 nM.

In turn, “TolB100-RNC (from UniProt P0A855 1-430) (complex)” registered an increase of Bpy fluorescence of nanodisc-embedded SecYEG(Bpy/Trp) (50 nM) on addition of TolB100-RNC (200 nM), 25 °C in assay [3] of more than 20%.

“vacant 70S ribosomes from E. coli MRE600 (complex)” returned an increase of Bpy fluorescence of SecYEG(Bpy/Trp) solubilised with detergent (0.03% DDM, no nanodisc) on addition of non-translating ribosomes, 25 °C in assay [3] of 15%. The same substance had an increase of Bpy fluorescence of nanodisc-embedded SecYEG(Bpy/Trp) (50 nM) on addition of vacant 70S ribosomes (200 nM), 25 °C (loss of PET quenching, lateral gate opening) in assay [1] of 15%. Besides, the Kd in assay [2] turned out to be 20 nM; in assay [4], 10 nM.

As to “DsbA100-RNC (from UniProt P0AEG4 1-208) (complex)”, the increase of Bpy fluorescence of nanodisc-embedded SecYEG(Bpy/Trp) (50 nM) on addition of DsbA100-RNC (200 nM), 25 °C in assay [3] is more than 20%.

Values taken from paper PMC4218953.
